Reference: doi:10.1101/683052

Biological target: dynein/ dynactin/ BicD2-S complex (human | human (endogenous in HEK293-T)) (UniProt Q14204)
Experiment: single-molecule TIRF colocalisation on microtubules

Chain of dynein/ dynactin/ BicD2-S complex (human | human (endogenous in HEK293-T)) (Q14204 whole entry, looked up, one chain of several): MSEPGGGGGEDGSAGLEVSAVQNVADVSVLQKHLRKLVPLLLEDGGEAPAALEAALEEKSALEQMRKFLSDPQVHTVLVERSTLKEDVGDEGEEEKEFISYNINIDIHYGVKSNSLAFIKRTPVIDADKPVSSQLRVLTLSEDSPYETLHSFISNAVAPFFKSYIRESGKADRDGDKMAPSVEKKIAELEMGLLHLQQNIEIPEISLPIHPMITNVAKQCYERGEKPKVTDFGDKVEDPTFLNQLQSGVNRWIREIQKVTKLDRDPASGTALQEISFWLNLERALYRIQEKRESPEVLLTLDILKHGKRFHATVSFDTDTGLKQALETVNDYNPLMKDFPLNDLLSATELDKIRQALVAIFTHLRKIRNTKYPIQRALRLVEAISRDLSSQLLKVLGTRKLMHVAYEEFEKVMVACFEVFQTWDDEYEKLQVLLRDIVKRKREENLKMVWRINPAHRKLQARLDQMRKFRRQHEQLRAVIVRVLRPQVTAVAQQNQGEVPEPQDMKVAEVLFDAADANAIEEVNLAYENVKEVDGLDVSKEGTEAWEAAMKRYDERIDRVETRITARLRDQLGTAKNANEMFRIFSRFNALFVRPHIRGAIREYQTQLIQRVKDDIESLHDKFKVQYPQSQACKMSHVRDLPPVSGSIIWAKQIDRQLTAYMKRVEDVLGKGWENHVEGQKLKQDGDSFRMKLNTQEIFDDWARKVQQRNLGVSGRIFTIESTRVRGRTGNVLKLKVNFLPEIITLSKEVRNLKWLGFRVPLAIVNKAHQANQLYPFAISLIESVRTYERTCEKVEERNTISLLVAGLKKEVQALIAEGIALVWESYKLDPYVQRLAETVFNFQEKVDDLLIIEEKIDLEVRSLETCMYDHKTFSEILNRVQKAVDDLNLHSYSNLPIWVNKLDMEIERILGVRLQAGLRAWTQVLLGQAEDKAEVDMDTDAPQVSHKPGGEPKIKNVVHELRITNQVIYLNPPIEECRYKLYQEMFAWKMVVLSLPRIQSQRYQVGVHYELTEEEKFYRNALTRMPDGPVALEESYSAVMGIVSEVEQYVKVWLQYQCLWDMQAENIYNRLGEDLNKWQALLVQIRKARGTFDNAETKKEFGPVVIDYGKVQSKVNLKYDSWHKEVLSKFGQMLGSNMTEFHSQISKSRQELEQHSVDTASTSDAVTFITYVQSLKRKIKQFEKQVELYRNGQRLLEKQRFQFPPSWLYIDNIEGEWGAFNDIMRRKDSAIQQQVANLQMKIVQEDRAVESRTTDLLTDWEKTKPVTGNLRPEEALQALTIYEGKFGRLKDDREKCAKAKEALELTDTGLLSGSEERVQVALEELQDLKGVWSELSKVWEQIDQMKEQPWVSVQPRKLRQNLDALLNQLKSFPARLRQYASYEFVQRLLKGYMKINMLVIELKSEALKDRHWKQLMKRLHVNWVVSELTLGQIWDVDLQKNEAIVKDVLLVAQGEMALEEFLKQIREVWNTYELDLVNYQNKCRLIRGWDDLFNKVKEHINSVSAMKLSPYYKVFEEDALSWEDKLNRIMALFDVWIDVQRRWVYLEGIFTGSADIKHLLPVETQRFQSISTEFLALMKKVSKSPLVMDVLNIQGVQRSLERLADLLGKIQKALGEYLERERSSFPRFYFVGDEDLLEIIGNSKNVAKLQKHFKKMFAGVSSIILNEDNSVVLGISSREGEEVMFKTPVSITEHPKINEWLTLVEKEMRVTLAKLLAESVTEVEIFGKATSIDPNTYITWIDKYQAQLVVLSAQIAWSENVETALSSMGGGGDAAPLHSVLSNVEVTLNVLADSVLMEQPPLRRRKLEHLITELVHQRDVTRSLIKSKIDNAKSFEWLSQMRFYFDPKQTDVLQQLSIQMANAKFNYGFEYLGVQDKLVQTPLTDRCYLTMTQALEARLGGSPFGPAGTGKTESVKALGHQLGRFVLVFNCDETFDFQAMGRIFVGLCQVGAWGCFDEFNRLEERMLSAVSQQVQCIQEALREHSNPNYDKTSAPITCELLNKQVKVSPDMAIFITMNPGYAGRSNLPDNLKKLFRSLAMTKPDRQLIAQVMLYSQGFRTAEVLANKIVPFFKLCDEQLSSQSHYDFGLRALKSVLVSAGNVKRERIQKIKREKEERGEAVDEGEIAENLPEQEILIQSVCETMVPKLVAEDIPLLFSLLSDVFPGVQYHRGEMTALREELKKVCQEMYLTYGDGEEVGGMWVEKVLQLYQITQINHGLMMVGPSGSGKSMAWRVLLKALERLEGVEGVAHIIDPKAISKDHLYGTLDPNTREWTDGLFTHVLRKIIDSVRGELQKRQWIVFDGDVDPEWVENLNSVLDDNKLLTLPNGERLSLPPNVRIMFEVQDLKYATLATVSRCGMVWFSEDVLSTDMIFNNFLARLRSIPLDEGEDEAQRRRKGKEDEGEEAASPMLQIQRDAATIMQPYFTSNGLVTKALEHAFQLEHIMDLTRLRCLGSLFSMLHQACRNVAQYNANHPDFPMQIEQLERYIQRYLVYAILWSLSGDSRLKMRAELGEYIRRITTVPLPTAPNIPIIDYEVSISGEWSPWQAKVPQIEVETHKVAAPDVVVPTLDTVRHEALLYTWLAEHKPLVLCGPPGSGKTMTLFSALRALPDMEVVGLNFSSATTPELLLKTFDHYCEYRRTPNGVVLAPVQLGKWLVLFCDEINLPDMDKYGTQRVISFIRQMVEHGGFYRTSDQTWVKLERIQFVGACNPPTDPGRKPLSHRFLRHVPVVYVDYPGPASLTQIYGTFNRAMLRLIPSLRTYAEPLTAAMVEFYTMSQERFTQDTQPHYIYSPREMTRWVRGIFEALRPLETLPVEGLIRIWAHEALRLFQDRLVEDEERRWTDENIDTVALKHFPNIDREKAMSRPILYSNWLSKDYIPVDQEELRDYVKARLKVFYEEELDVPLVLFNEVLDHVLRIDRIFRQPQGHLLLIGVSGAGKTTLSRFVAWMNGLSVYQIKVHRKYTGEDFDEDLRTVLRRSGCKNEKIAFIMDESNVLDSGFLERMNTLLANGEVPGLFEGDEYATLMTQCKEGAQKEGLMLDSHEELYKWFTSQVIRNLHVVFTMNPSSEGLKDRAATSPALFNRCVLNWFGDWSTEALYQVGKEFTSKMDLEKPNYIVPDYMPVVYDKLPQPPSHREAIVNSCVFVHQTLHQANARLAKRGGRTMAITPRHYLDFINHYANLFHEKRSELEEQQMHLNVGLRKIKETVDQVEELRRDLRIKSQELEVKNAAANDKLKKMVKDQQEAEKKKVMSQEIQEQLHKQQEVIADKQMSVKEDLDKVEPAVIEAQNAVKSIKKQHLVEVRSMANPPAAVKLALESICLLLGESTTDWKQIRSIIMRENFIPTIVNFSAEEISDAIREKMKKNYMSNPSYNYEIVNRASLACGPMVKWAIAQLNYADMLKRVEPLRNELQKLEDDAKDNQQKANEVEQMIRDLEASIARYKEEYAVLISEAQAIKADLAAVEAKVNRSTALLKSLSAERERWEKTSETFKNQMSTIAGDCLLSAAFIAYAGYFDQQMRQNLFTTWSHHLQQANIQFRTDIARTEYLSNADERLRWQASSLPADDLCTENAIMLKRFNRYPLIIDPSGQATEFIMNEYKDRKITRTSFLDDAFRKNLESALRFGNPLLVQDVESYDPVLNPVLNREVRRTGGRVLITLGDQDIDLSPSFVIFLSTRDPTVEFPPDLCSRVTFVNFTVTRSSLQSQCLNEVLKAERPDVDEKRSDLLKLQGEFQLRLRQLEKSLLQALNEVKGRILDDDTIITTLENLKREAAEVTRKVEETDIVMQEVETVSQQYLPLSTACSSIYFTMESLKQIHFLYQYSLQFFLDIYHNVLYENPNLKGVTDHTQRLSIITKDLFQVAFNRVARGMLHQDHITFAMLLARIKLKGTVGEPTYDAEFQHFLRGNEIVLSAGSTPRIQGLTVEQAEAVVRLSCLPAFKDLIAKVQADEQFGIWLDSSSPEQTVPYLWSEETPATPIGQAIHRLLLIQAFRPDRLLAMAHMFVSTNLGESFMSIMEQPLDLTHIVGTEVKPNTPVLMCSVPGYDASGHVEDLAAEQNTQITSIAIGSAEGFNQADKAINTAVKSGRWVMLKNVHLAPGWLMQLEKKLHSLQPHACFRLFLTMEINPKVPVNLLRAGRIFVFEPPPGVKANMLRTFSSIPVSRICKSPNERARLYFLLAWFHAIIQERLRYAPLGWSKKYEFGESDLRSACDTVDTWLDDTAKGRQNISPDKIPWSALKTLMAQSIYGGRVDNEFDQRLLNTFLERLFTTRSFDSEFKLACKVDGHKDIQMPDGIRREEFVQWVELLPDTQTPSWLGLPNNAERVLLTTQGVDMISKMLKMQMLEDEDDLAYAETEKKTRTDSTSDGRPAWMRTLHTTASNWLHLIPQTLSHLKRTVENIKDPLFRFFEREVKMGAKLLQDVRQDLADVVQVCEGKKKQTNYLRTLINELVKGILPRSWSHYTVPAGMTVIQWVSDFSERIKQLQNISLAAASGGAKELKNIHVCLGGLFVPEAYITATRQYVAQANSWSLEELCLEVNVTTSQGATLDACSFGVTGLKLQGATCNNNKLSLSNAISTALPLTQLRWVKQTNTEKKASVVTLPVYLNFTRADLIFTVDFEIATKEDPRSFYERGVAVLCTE

HaloTag-Lis1 (human full-length Lis1, PAFAH1B1) (from UniProt P43034 1-410) (natural protein)
percent of dynein runs that comigrated with Lis1: 16.8%
